Data set [1] is described as follows: Phosphomonoesterase activity (inosine produced by hydrolysis of 5'-inosinic acid). The class given is biochemical. The following applies: purified Escherichia blattae enzyme. On the procedure:
The phosphomonoesterase activity was measured under the following condition using 5'-inosinic acid as a substrate. The reaction was performed at 30° C. for 10 minutes in a reaction solution (1 ml) containing 10 μmol/ml of 5'-inosinic acid, 100 μmol/ml of MES/NaOH buffer (pH 6.0), and an enzyme. The reaction was stopped by adding 200 μl of 2 N hydrochloric acid. After that, precipitates were removed by centrifugation. Then, inosine produced by the hydrolytic reaction was quantitatively measured. An amount of enzyme to produce 1 μmol of inosine per 1 minute under this standard reaction condition was defined as 1 unit.
Inosine and 5'-inosinic acid were analyzed under the following condition by means of high-performance liquid chromatography (HPLC).

A short description of data set [2]: Properties of the purified acid phosphatase derived from Escherichia blattae. Set-up: species or system Escherichia blattae JCM 1650. On the procedure:
A nutrient medium (pH 7.0, 50 ml) containing 1 g/dl of peptone, 0.5 g/dl of yeast extract, and 1 g/dl of sodium chloride was poured into Sakaguchi flasks (500 ml), which was sterilized at 120° C. for 20 minutes. A slant culture of Escherichia blattae JCM 1650 was inoculated to each of the flasks once with a platinum loop, which was cultivated at 30° C. for 16 hours with shaking. Microbial cells were harvested from a culture by centrifugation. The microbial cells (about 3,300 g) were suspended in 100 mM potassium phosphate buffer (1 L, pH 7.0). A ultrasonic treatment was performed at 4° C. for 20 minutes to disrupt the microbial cells. The treated suspension was centrifuged to remove its insoluble fraction. Thus a cell-free extract was prepared.
The purified enzyme had the following properties.

This note sets out measurements from patent US6010851A, “Method for producing nucleoside-5'-phosphate ester” (Ajinomoto Co., Inc., priority 1995, dated 2000).

B1: acid phosphatase derived from Escherichia blattae: enzyme purified from cell-free extract of Escherichia blattae JCM 1650; mature protein SEQ ID NO: 11 (protein)
chain: LALVATGNDTTTKPDLYYLKNSEAINSLALLPPPPAVGSIAFLNDQAMYEQGRLLRNTERGKLAAEDANLSSGGVANAFSGAFGSPITEKDAPALHKLLTNMIEDAGDLATRSAKDHYMRIRPFAFYGVSTCNTTEQDKLSKNGSYPSGHTSIGWATALVLAEINPQRQNEILKRGYELGQSRVICGYHWQSDVDAARVVGSAVVATLHTNPAFQQQLQKAKAEFAQHQKK
Consider B1, for which, in data set [1], the “phosphate ester hydrolytic activity (phosphomonoesterase activity) relative to transphosphorylation activity” value is reported as “not less than 30 times”. Besides, the Optimum temperature result in data set [2] is “about 35 °C”. Moreover, the “Optimum pH” value was 6.5 in data set [2] (phosphate ester hydrolytic reaction) and 5.2 in data set [2] (transphosphorylation reaction). Besides, the Temperature stability result in data set [2] (treatment at pH 7.0 for 30 minutes) is “up to 40 °C”.
